Holding throughout (assay): SEC-MALS; Superdex 200 5/150 GL; 100 mM Tris-HCl pH 8.0, 150 mM NaCl, 1 mM EDTA, 10% (v/v) glycerol; 0.15 mL/min; 90 µL of each sample at 1.6 mg/mL injected
The target of data set [1] is Plastid-specific ribosomal protein 1a (PSRP1a) of Physcomitrium patens, mature form (Physcomitrium patens).
Data set [2] has as its target Plastid-specific ribosomal protein 1b (PSRP1b) of Physcomitrium patens, mature form (Physcomitrium patens).
Data set [3] concerns the molecule itself.

Usually stoichiometry N stands for the number of molecules, sites or subunits per partner or assembly. Take “Plastid-specific ribosomal protein 1a (PSRP1a) of Physcomitrium patens, mature form (natural protein)”: the stoichiometry N in data set [1] worked out at 2.
In turn, “Plastid-specific ribosomal protein 1b (PSRP1b) of Physcomitrium patens, mature form (natural protein)” gave a stoichiometry N in data set [2] of 2.

B1: Bacillus subtilis long-form hibernation-promoting factor (BsHPF) (natural protein, UniProt P28368 1-189, looked up)
chain: MNYNIRGENIEVTPALKDHVERKIGKLERYFDHSVDADVNVNLKFYNDKESKVEVTIPMTDLALRSEVHNEDMYNAIDLATNKLERQIRKHKTKVNRKFREQGSPKYLLANGLGSDTDIAVQDDIEEEESLDIVRQKRFNLKPMDSEEAILQMNMLGHNFFVFTNAETNLTNVVYRRNDGKYGLIEPTE
notes: Long-form hibernation-promoting factor (LHPF) of Bacillus subtilis, amplified from genomic DNA; predicted mass of the construct 24.2 kDa; Dimeric control protein of the SEC-MALS experiment; also called Bacillus subtilis LHPF
With B1, the “stoichiometry N” value in data set [3] was found to be 2.
